Target: T1, recombinant His6-tagged SPRTN (human, UniProt Q9H040 1-489)
T1 construct: SPRTN metalloprotease, human; The methods of this pull-down are not described; also called purified SPRTN; source: recombinant, purified in house from E. coli
T1 sequence (looked up): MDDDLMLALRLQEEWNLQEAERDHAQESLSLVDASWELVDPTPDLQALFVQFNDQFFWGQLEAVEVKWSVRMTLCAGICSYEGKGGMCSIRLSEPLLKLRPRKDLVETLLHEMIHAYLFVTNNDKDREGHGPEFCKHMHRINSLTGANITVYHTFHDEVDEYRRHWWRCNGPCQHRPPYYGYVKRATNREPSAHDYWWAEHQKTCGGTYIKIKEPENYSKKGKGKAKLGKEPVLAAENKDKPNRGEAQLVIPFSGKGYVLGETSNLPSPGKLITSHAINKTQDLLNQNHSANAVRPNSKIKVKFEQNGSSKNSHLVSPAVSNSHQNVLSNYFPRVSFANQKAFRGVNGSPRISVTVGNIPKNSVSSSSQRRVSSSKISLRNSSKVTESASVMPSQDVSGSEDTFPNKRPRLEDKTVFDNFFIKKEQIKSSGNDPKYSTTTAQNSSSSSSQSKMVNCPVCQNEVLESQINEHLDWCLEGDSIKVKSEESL
Assay: pull-down; recombinant His6-tagged SPRTN held on Ni-NTA beads, purified CHK1 co-precipitated; immunoblot
Conditions: both partners purified

binding result: binds
B1: Purified CHK1 (enzyme, human, UniProt O14757 1-476, looked up)
chain: MAVPFVEDWDLVQTLGEGAYGEVQLAVNRVTEEAVAVKIVDMKRAVDCPENIKKEICINKMLNHENVVKFYGHRREGNIQYLFLEYCSGGELFDRIEPDIGMPEPDAQRFFHQLMAGVVYLHGIGITHRDIKPENLLLDERDNLKISDFGLATVFRYNNRERLLNKMCGTLPYVAPELLKRREFHAEPVDVWSCGIVLTAMLAGELPWDQPSDSCQEYSDWKEKKTYLNPWKKIDSAPLALLHKILVENPSARITIPDIKKDRWYNKPLKKGAKRPRVTSGGVSESPSGFSKHIQSNLDFSPVNSASSEENVKYSSSQPEPRTGLSLWDTSPSYIDKLVQGISFSQPTCPDHMLLNSQLLGTPGSSQNPWQRLVKRMTRFFTKLDADKSYQCLKETCEKLGYQWKKSCMNQVTISTTDRRNNKLIFKVNLLEMDDKILVDFRLSKGDGLEFKRHFLKIKGKLIDIVSSQKIWLPAT
notes: checkpoint kinase 1 (CHK1), human
